Data reported in US20190030126A1, “Inhibitors of the Interaction BCL-2 L10 / IP3 Receptors” (Universite Claude Bernard - Lyon 1, priority 2016, published 2019).

What was measured:
[1] = target: T1, Nrh/IP3R1 complex (Flag-Nrh / HA-hBD IP3R1) (Homo sapiens, UniProt Q9HD36); test: Co-immunoprecipitation of Flag-Nrh and HA-hBD IP3R1 in HeLa cells pre-incubated with dTAT peptides; format: cell-based; conditions: 10 μM peptide, pre-incubated 1 h at 37° C., no external agent
T1 construct: expressed in transfected cells; host or cells: HeLa
T1 sequence (Q9HD36 11-204): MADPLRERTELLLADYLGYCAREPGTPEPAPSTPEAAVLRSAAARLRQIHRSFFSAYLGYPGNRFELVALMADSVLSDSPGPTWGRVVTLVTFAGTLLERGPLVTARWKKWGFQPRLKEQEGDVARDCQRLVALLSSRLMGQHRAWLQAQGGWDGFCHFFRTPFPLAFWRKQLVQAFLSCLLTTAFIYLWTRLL
Description: (B) The interaction between Flag-Nrh and HA-hBD IP3R1 was assessed by co-immunoprecipitation in HeLa cells transfected with a plasmid coding for Flag-Nrh or HA-hBD IP3R1, pre-incubated with 10 μM control peptide (dTAT 1-23 C20A Y16F) or 10 μM peptide (dTAT 1-23 C20A). In this experiment, dTAT-Nrh 1-23 C20A but not dTAT 1-23 C20A Y16F disrupts the Nrh/IP3R1 complex.
The interaction between Flag-Nrh (Bcl-2 L10) and HA-hBD IP3R1 was assessed by co-immunoprecipitation in HeLa cells transfected with a plasmid coding for Flag-Nrh or HA-hBD IP3R1, pre-incubated for 1 h at 37° C. in Ca^2+-free Balanced Salt Solution (121 mM NaCl, 5.4 mM KCl, 0.8 mM MgCl2, 6 mM NaHCO3, 5.5 mM D-glucose, 25 mM HEPES, pH 7.3) with vehicle (peptide solvant [H2O-TFA 0.1%]), and: • 10 μM of control peptide (dTAT 1-23 Y16F C20A) or • 10 μM of wild-type peptide (dTAT 1-23 C20A).
Cells were washed twice and incubated for another 1 h at 37° C. before harvest.

MDA-MB-231 cancer cells = test: MDA-MB-231 tumour growth in the mammary fat pad of SCID mice; format: in vivo; conditions: 10 mg/kg, peritumoral injection, once every three days, monotherapy, versus vehicle (PBS); P<0.01
Description: (A) MDA-MB-231 cells have been injected into the mammary fat pad of SCID mice. When the tumors reached a mean volume of about 90 mm^3, mice were treated with dTAT 1-23 C20A peptide at 10 mg/kg, peritumoral injection, once every three days, or vehicle alone (PBS) with the same injection periodicity.
SCID Mice have been used as tumor model for testing the effects of administration of the peptides according to the invention
MDA-MB-231 cancer cells have been injected into the mammary fat pad of SCID mice.

CKRKKRRQRRRGGSGGADPLRERTELLLADYLGYAARE [dTAT 1-23 C20A]
disruption of the Nrh/IP3R1 complex (co-immunoprecipitation) [1]: disrupt the Nrh/IP3R1 complex | effect on tumoral growth (tumor volume) (MDA-MB-231 cancer cells): significant effect
